The assay deals with T1, VipB protein (Vibrio cholerae, VCA0108) (Vibrio cholerae).
T1 construct: GenBank NP_232509; The experiments used strain 2740-80; also called 55 kDa band; Band A
T1 chain: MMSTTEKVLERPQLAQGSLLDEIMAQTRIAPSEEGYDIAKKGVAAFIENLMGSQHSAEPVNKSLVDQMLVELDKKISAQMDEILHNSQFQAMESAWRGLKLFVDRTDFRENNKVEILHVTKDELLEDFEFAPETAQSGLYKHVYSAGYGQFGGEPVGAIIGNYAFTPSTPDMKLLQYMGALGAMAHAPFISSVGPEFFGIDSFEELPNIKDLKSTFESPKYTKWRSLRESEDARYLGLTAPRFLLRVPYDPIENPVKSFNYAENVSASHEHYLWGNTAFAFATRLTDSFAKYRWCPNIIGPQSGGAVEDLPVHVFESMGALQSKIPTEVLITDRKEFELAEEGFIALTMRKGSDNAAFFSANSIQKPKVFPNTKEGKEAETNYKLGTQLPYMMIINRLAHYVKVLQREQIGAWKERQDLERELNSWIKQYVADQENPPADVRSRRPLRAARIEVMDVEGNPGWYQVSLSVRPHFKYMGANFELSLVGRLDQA
The assay is described as follows: purified sheath separated by SDS-PAGE; bands identified by MS.

B1: VipA protein (Vibrio cholerae, VCA0107) (other)
chain: MSKEGSVAPKERINIKYIPATGDAQAEVELPLKTLVVGDFKGHAEQTPLEERATVTVDKNNFEAVMRESELKITATVKNKLTDDENAELPVELNFKSLADFAPDAVASQVPELKKLIELREALVALKGPLGNIPAFRERLQSLLNSEESREKLLAELNLLSGQEEPQA
notes: GenBank NP_232508; The experiments used strain 2740-80; also called WT VipA; 20 kDa band
B1: the binding result was “binds”.

Source of the values: patent publication US20180147273A1 (Harvard, published 2018).
